# *1 amine or outer side, *2 acyl side, *3 side chain or, on linkers, in order; H or OH if unused. Bridges are numbered along the chain shown (N, C = ends). Primed or numbered codes have the meaning given here. Where no end group is shown, it is not given here. [ ]: non-standard residue; d: D form. Tyr(Me) = COc1ccc(C[C@H](N[*:1])C(=O)[*:2])cc1; NMePhe(3-Cl) = CN[C@@H](Cc1cccc(Cl)c1)C(=O)O; NMeW = CN[C@@H](Cc1c[nH]c2ccccc12)C(=O)O; NMeY = CN[C@@H](Cc1ccc(O)cc1)C(=O)O; PEG11′ = not defined here; Aib = CC(C)(N)C(=O)O
# B1: hTfR_000894_PEG11_(VivoTag) (peptide)
# peptide: {CH2CO}-AVFVWNYYIIRRY[NMeY]C
# modifications: thioether N-15; not fully specified (C-terminus); also: linker PEG11 in text, PEG12 in table
# notes: also called hTfRNo.894-vivotag750; hTfRNo.894-PEG11-Vivotag750
# B2: hTfRNo.894FLIP-vivotag750 (peptide)
# peptide: {CH2CO}-A[NMeY]YRRIIYYNWVFVC-{PEG11′-VivoTag750}
# modifications: thioether N-15 (inferred); not fully specified; printed as ClAc-Ala-MeTyr-Tyr-Arg-Arg-Ile-Ile-Tyr-Tyr-Asn-Trp-Val-Phe-Val-Cys
# notes: also called hTfRNo.894FLIP-PEG11-Vivotag750
# B3: Flip_894_PEG4_KFITC (peptide)
# peptide: {CH2CO}-A[NMeY]F[dR][Aib]IY[Tyr(Me)]YN[NMeW]V[NMePhe(3-Cl)]VC
# modifications: thioether N-15; not fully specified (C-terminus); also: PEG4c not defined
# notes: also called Flip894_variant61_PEG4dk5FAM; Flip894_variant61_PEG4dk5FA
# Assays:
# [1] = biological target: T1, human transferrin receptor (hTfR) (human, UniProt P02786 89-760, limits assumed); assay: SPR according to Example 2
# T1 construct: hTfR solution immobilised on NTA chip (Ni capture plus EDC/NHS); also called human TfR
# Description: (§1) For each of the various synthesized peptides, the intermolecular interaction of the peptide with the transferrin receptor (hTfR) was tested by surface plasmon resonance (SPR) according to the following method. The specific test method is as follows.
# (§2) An NTA sensor chip (Global Life Sciences Technologies Japan) was inserted in a Biacore T200 (Global Life Sciences Technologies Japan) and a prime operation was performed 3 times with a running buffer: 10 mM HEPES pH 8.0 (Nacalai Tesque), 150 mM NaCl (Nacalai Tesque), 0.05% Tween 20 (Nacalai Tesque), 0.1% BSA (Sigma-Aldrich), 1.0% DMSO (FUJIFILM Wako Pure Chemical) to create an Equilibration state at a flow rate of 30 µL/min. After reacting with 350 mM EDTA solution for 60 seconds at a flow rate of 10 µL/min then reacting with 0.5 mM NiCl₂ solution (Kishida Chemical) for 60 seconds at a flow rate of 10 µL/min, the NTA sensor chip was washed with 3 mM EDTA solution (Nacalai Tesque) for 60 seconds at a flow rate of 10 µL/min. After mixing 50 µL each of 60 mM EDC solution (Global Life Sciences Technologies Japan) and 650 mM NHS solution (Global Life Sciences Technologies Japan), the mixture was reacted for 420 seconds at a flow rate of 10 µL/min. […] An obtained sensorgram was subjected to curve fitting using the least-squares method, and the binding of the peptide to hTfR was evaluated by obtaining KD values.
# [2] = biological target: T1, human transferrin receptor (hTfR); assay: SPR in accordance with Example 2
# Description: as §1, §2
# [3] = biological target: T1, human transferrin receptor (hTfR); assay: SPR, hTfR immobilised
# Description: An NTA sensor chip (Global Life Sciences Technologies Japan) was inserted in a Biacore T200 (Global Life Sciences Technologies Japan) and a prime operation was performed 3 times with a running buffer: 10 mM HEPES pH 8.0 (Nacalai Tesque), 150 mM NaCl (Nacalai Tesque), 0.05% Tween 20 (Nacalai Tesque), 0.1% BSA (Sigma-Aldrich), 1.0% DMSO (FUJIFILM Wako Pure Chemical) to create an Equilibration state at a flow rate of 30 µL/min. After reacting with 350 mM EDTA solution for 60 seconds at a flow rate of 10 µL/min then reacting with 0.5 mM NiCl₂ solution (Kishida Chemical) for 60 seconds at a flow rate of 10 µL/min, the NTA sensor chip was washed with 3 mM EDTA solution (Nacalai Tesque) for 60 seconds at a flow rate of 10 µL/min. After mixing 50 µL each of 60 mM EDC solution (Global Life Sciences Technologies Japan) and 650 mM NHS solution (Global Life Sciences Technologies Japan), the mixture was reacted for 420 seconds at a flow rate of 10 µL/min. By diluting with the running buffer, 150 µL of 3.2 µM hTfR solution was prepared and used for reaction for 600 seconds at a flow rate of 10 µL/min, thereby immobilizing hTfR on the NTA sensor chip. […] An obtained sensorgram was subjected to curve fitting using the least-squares method, and the binding of the peptide to hTfR was evaluated by obtaining KD values.
# T1 sequence (P02786 89-760 limits assumed): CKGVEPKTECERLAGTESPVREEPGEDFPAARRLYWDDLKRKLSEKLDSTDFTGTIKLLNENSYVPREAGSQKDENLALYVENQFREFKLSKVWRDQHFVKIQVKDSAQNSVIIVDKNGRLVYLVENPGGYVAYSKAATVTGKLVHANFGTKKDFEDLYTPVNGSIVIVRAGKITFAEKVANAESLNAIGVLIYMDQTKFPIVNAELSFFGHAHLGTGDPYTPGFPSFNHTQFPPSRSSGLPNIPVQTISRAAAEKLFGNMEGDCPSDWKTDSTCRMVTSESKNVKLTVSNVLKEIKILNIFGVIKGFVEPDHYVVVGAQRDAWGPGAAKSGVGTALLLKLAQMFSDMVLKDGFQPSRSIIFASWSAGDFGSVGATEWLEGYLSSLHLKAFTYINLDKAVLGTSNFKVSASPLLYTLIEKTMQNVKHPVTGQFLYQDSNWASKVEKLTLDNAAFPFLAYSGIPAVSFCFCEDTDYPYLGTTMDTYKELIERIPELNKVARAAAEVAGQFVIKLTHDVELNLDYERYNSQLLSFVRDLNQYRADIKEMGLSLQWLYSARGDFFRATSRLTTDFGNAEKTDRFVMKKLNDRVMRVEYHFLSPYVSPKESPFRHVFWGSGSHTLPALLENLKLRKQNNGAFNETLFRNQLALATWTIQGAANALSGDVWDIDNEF
binder,measurement,setting,value
B1,Kd,[1],1.09 nM
AVFVWNYYIIRRYYC (14 MeTyr; C-term PEG11-K(FITC); cyclic 1-15 thioether) [JCR_hTfR_000894_PEG11_K(FITC)],Kd,[2],0.28 nM
B2,binding result,[1],no binding
{CH2CO}-A[NMeY]YRRIIYYNWVFVC-{PEG11′-K(FITC)} (thioether N-15) [FLIP_000894_PEG11_K_FITC],binding result,[3],no binding
B3,binding result,[3],no binding

# Source: patent US20230203098A1 (published 2023)
